Data on two molecules can be found in US6699834B1, “Method for treating cancer” (University of Maryland Biotechnology Institute, priority 1997, dated 2004).

In one assay the test system is KS Y-1 and KS-SLK cells. As to the kind of experiment: Kaposi's Sarcoma clonogenic assay in cultured cells. To be noted: for KS in vitro: inhibition of Kaposi's Sarcoma cell growth in vitro in cultured cells. Type of assay: cell-based, human. The method, then: Briefly, the KS Y-1 cells were obtained from mononuclear cells isolated from pleural effusion of an AIDS patient with KS in the lungs. After the depletion of T lymphocytes, monocytes/macrophages and fibroblasts using monoclonal antibodies against CD2, CD3, CD4, CD8, CD10 and CD14 membrane antigens and baby rabbit complement, the cells were cultured in the absence of exogenous growth factors to select for transformed cells. […] Clonogenic assays were performed by seeding the KS Y-1 or KS-SLK cells in methylcellulose (0.8%, v/v), incubating the cells for 10 days in the presence or absence of the hCC, β-hCG or β-hCG peptide preparations and then counting the number of well-formed colonies of triplicate wells formed after seeding with 5×10^4 cells.
To assay for activity against Kaposi's sarcoma cell growth in vitro, the clonogenic assay described herein was used with the KS Y-1 and KS-SLK cultured Kaposi's Sarcoma cell lines,.

For a further assay, the system named is HIV-1. To be noted: for HIV in vitro Inhibition: inhibition of HIV-1 replication in vitro (HIV-1 strains and HIV-1 primary isolates). An excerpt: To prepare HIV infected cells for the in vitro assay of hCG preparations and β-hCG peptides and derivatives, primary PBMCs, macrophages, and CD4^+ T cells isolated from peripheral blood and the H9 human T cell line, were acutely or chronically infected with 8 different HIV-1 strains: 4 cell line adapted viruses, namely the macrophage tropic Ba-L strain (Gartner et al., 1986, Science 233:215-219) and the CD4^+ T cell tropic MN, RF, and IIIB strains (10^5 TCID50/ml) (Popovic et al., 1984, Science […]; Gallo et al.; 1984, Science 224:500-503); 2 isolates, Ju1083 and G3, from Nigerian AIDS patients passed once in a CD4^+ T cell line (Sub-T1); and 2 primary (“clinical”) isolates from AIDS patients from Trinidad which were never passed in any cell line and were used at a titer of 7.5×10^4TCID50/ml. In all experiments; HIV1 (10^5 TCID50/ml) was added to the cells(10^6 cells/ml) for a 2 hour incubation after which the virus infected cells were washed with 10 ml phosphate buffered saline (PBS) three times to eliminate extra cellular virus. The test inhibitor, i.e. the hCG or β-hCG peptide preparation was then added and the cells were incubated with the test inhibiter for 9 to 10 days with serial sampling. Cultures were assayed for p24 antigen on days 3 to 10.
Peptides of the α- and β-subunits (0.05 to 50 nmoles/ml), native α chain preparation, and various crude preparations of the native hCG heterodimer (0.01 to 1,000 IU) and the native β-hCG subunit (100 to 1,000 μg) were tested for effects on HIV-1 replication in acutely infected cells-by measuring change in viral antigen levels in response to the above noted preparations (FIGS. 4A-D and Table 3).
The fractions were then tested for anti-HIV, anti-KS and pro-hematopoietic activities in vitro. To assay for inhibition of HIV-1 replication in vitro, the HIV-1 […] viral strain was used to infect PBMCs and PM-1 cells (derived from the HUT-78 T-cell lymphoma cell line) at 10^3 TCID50/ml as described in detail herein.

A further assay relates to HIV-1 transgenic mice. Put plainly: Survival, growth and weight of HIV-1 transgenic mouse pups. Format: in vivo. To be noted: administered first 5 days after birth through mothers milk. The protocol: (§1) The HIV-1 transgenic mice used for this study contain 7.4 kb of foreign DNA, including 5.1 kb of the HIV-1 proviral genome deleted in the gag and pol genes and 2.3 kb of vector (Dickie et al., 1991, Virology 185:109-119). […] In addition, these mice develop severe hyperkeratotic skin lesions with marked expression of gp 120 and nef genes (Kopp et al., 1993, AIDS Res. Hum. Retroviruses 9:267-275; Vasli et al., 1994, AIDS Res. Hum. Retroviruses 10:1241-1250).
Finally, certain fractions were tested for their ability to increase survival, promote weight gain and reduce HIV-1 gene expression in HIV-1 transgenic mice as described herein.
HIV-I transgenic pups administered hCG and hCG-related preparations for the first 5 days after birth through the mothers milk were monitored for survival at 10 days after birth.

The subject of assay [1] is Kaposi's Sarcoma induced in mice. As to the kind of experiment: Kaposi's Sarcoma tumors induced in mice by KS Y-1 cells. Format: in vivo. To be noted: inhibition of Kaposi's Sarcoma induced in mice. The method, then:
The effects of the peptides on KS tumor cells were also evaluated in vivo in the KS mouse model. To induce KS tumors in the mice, 1×10^6/ml KS Y-1 cells in 50 μl PBS or saline were injected subcutaneously into immunodeficient mice (beige-XID-BNX mice). […] Methods for detection of apoptosis (from tissue biopsies) were used, as described in Lunardi-Iskandar et al.(1995, Nature 375:64-68). Briefly, the samples were stained in situ for the presence of cells with DNA fragmentation. Tissue slides from formalin-fixed tumors were treated with terminal deoxynucleotide transferase for extension of DNA ends (hydroxyl 3′) and incorporation of digoxigenin-11-dUTP according to the manufacturer's instructions (Oncor, Gaithersburg, Md.). Anti-digoxigenin antibody conjugated with the enzyme peroxidase allowed detection of apoptotic cells, which stain brown, whereas viable cells stain blue.
Certain fractions were tested for activity in reducing Kaposi's Sarcoma lesions in the Kaposi's Sarcoma mouse model as described herein. In this assay, starting one week after injection of the KS Y-1 cells to induce Kaposi's sarcoma formation, the mice were injected subcutaneously with 100 IU hCG. […] After one week of the week of treatment with the hCG fractions, the KS lesions were examined for cell apoptosis and regression as described herein. […]

In assay [2] the test system is hematopoietic progenitor cells. Put plainly: Hematopoietic progenitor clonogenic assays (CFU-GEMM, BFU-e, CFU-GM). Format: cell-based, human. To be noted: for Pro-hematopoiesis in vitro Enhancement: relative increase of hematopoietic colony cell number, hCG preparations 200 IU/ml, subunits and peptides 100 μg/ml. The method, then:
The effect of hCG preparations and peptides was assayed on hematopoietic progenitor cells in vitro: Hematopoietic progenitor cells (2×10^5 cell/ml) were isolated from normal bone marrow and cord blood and seeded in methylcellulose. […] The hCG preparations were administered at 200 IU/ml and the β- and α-subunits and peptides were administered at 100 μg/ml. The native commercial preparation of hCG (APL™, Wyeth Ayerst) was pre-tested for anti-HIV and anti-KS activities. Aggregates containing more than 50 cells after 10 days of culture were counted as colonies.

In assay [3] the test system is HIV RNA and protein expression. Put plainly: HIV RNA and protein expression in HIV-1 transgenic mice. Type of assay: in vivo. The note with it: inhibition of HIV RNA and protein expression in HIV-1 transgenic mice.
Description: as §1
Heterozygous transgenic mothers were treated with the hCG preparation subcutaneously twice weekly. Pups received hCG via the mother's milk.
Gene expression was assayed in total RNA extracted from the skin of Tg26 mice with RNAzol. One microgram of RNA was reverse transcribed into cDNA using random hexamer primers and […] reverse transcriptase (Life Technologies, MD) in a final volume of 30 μl. One tenth of the cDNA reactions were used for PCR amplification of various HIV gene sequences (env, tat, rev, nef and vif). In addition, glyceraldehyde 3-phosphate dehydrogenase (GAPHD) mRNA was amplified for each sample for normalization. […] Detection was performed by chemiluminescence (Amersham) and relative mRNA levels determined by densitometry after normalization with GAPDH mRNA levels. […]

B1: rβhCG: recombinant β subunit expressed in mouse cells (Sigma) (protein, UniProt P0DN86 21-165, looked up)
Choriogonadotropin subunit …: SKEPLRPRCRPINATLAVEKEGCPVCITVNTTICAGYCPTMTRVLQGVLPALPQVVCNYRDVRFESIRLPGCPRGVNPVVSYAVALSCQCALCRRSTTDCGGPKDHPLTCDDPRFQDSSSSKAPPPSLPSPSRLPGPSDTPILPQ
B1: in the assay on KS Y-1 and KS-SLK cells, the KS in vitro result is on record as “− (“−” represents less than 10% effect)”. In the assay on HIV-1, the “inhibition of HIV-1 infection/replication in vitro (in words)” value was “not to be active” and the “HIV in vitro Inhibition” value is given as “− (“−” represents less than 10% effect)”. Also, the “survival at 10 days after birth” value with HIV-1 transgenic mice is reported as “failed to promote survival”. Moreover, in assay [1], the KS in vivo result was “− (“−” represents less than 10% effect)”. In assay [2], the “Pro-hematopoiesis in vitro Enhancement” value is reported as “− (“−” represents less than 10% effect)”. In addition, in assay [3], the “inhibition of HIV RNA and protein expression” value is “− (“−” represents less than 10% effect)”.

B2: βhCG: purified native β subunit of hCG (Sigma) (protein, UniProt P0DN86 21-165, looked up)
Choriogonadotropin subunit …: SKEPLRPRCRPINATLAVEKEGCPVCITVNTTICAGYCPTMTRVLQGVLPALPQVVCNYRDVRFESIRLPGCPRGVNPVVSYAVALSCQCALCRRSTTDCGGPKDHPLTCDDPRFQDSSSSKAPPPSLPSPSRLPGPSDTPILPQ
modifications: native beta subunit only
Take B2: the “inhibition of KS cell growth in clonogenic assays (in words)” value with KS Y-1 and KS-SLK cells (KS Y-1 and KS SLK) is “moderately well”. In the assay on KS Y-1 and KS-SLK cells, the KS in vitro result is “++ (“++” represents greater than 40% effect)”. Besides, in the assay with HIV-1, the “inhibition of HIV-1 infection/replication in vitro (in words)” value is listed as “active”. Further, in the assay on HIV-1, the “HIV in vitro Inhibition” value is “++ (“++” represents greater than 40% effect)”. For the same molecule, the “survival at 10 days after birth” value in the assay on HIV-1 transgenic mice is recorded as “promote survival”. Further, the KS in vivo result in assay [1] was “++ (“++” represents greater than 40% effect)”. Further, the “promotion of hematopoiesis (in words)” value in assay [2] (listed as native β-hCG) is listed as “pro-hematopoietic activity”; in assay [2] (listed as partially purified native β-chain), “directly promoted”. Besides, the “Pro-hematopoiesis in vitro Enhancement” value in assay [2] is on record as “++ (“++” represents greater than 40% effect)”. Besides, the “inhibition of HIV RNA and protein expression” value in assay [3] is “++ (“++” represents greater than 40% effect)”.
